Measurements taken from patent publication US8178486B2, “Method for promoting hair growth” (Animal Technology Institute Taiwan, priority 2005, dated 2012).

Key:
Format in all cases: in vivo
[1] = test system: hair follicles; test: Hair growth in young mice, topical application to shaved dorsal skin; settings: 2-month old male ICR mice; for time until hair growth was observed after the treatment: water control 15-17 days
Protocol: To study the effect of lactoferrin in hair growth in young mice, five male ICR (outbred) mice, each 2 months old, were shaved to expose a portion of dorsal skin. For each treated mouse, the exposed portion of dorsal skin was further marked with three areas as illustrated in FIG. 1A to be subsequently administered different treatments. Referring to FIG. 1B, the three marked areas (from left to right) were treated by spreading topically on the exposed skin areas 60 μl of bovine lactoferrin (as an aqueous solution of 100 mg/ml), 60 μl of bovine lactoferrin (of 200 mg/ml) and 60 μl of control vehicle (water), respectively, on a twice daily basis. Observation for hair growth in the marked areas was made daily after the first treatment. […] The hair growth was observed on all five mice administered 200 mg/ml of lactoferrin 2 to 4 days after the treatment.
Hematoxylin and Eosin (H&E) staining was performed to microscopically examine the skin area treated with 200 mg/ml of lactoferrin or the control vehicle for 14 days. […] Thus, the proliferation of the anagen phase hair follicles evidently reflected the hair growth observed in the lactoferrin-treated area.

[2] = test system: hair follicles; test: Hair growth in aged mice, topical application to shaved dorsal skin; settings: 11-month old male ICR mice; for time until hair began to grow on the treated areas after the treatment: water control 21-23 days
Protocol: To further test whether lactoferrin could induce hair growth in aged mice, five male ICR mice, each 11 months old, were similarly shaved and marked with three areas of the exposed dorsal skin as described in Example 1. The marked areas of the mice were applied by spreading topically on the exposed skin areas 60 μl of aqueous solutions of bovine lactoferrin (100 mg/ml), 60 μl of bovine lactoferrin (200 mg/ml) and 60 μl of control vehicle (water) twice a day. Observation for hair growth in the marked areas was made daily after the first treatment. […] In general, the mice treated with 200 mg/ml of lactoferrin began to grow hair on the treated areas 4-6 days after the treatment. […] Spontaneous hair growth in the control area was only observed 21-23 days after the treatment. The hair growth-promoting effect of lactoferrin was consistently observed in all tested mice.
The H&E staining method was performed in a manner similar to Example 1 to examine the skin area treated with 200 mg/ml of lactoferrin or the control vehicle for 14 days. […] Thus, the hair follicles are clearly activated or triggered to re-enter from the telogen-phase to the anagen-phase. The activation of the hair follicles also reflects the hair growth observed in the lactoferrin-treated area.

[3] = test system: hair follicles; test: Hair growth in 4-month old female mice, topical application to shaved dorsal skin; settings: 60 μl of 200 mg/ml topically twice daily, after 10 days, not seen with control vehicle
Protocol: The marked areas of the mice were applied by spreading topically on the exposed skin areas 60 μl of aqueous solutions of bovine lactoferrin (200 mg/ml), 60 μl of control vehicle (water), and 60 μl of bovine lactoferricin, obtained as set forth in Example 3, (200 mg/ml) twice daily. Observation for hair growth in the marked areas is made daily after the first treatment. […] The hair growth-promoting effect of lactoferrin or lactoferricin was consistently observed in all tested mice. Although lactoferricin was prepared by the method described in Example 3 above, the present invention should not be limited to use only lactoferricin prepared in such manner. Lactoferricin prepared by other methods would still fall within the scope of the present invention.

[4] = 200 mg/ml, 14 days of treatment, H&E histology

B1: lactoferrin (protein, UniProt P24627 20-708, looked up)
Lactotransferrin: APRKNVRWCTISQPEWFKCRRWQWRMKKLGAPSITCVRRAFALECIRAIAEKKADAVTLDGGMVFEAGRDPYKLRPVAAEIYGTKESPQTHYYAVAVVKKGSNFQLDQLQGRKSCHTGLGRSAGWIIPMGILRPYLSWTESLEPLQGAVAKFFSASCVPCIDRQAYPNLCQLCKGEGENQCACSSREPYFGYSGAFKCLQDGAGDVAFVKETTVFENLPEKADRDQYELLCLNNSRAPVDAFKECHLAQVPSHAVVARSVDGKEDLIWKLLSKAQEKFGKNKSRSFQLFGSPPGQRDLLFKDSALGFLRIPSKVDSALYLGSRYLTTLKNLRETAEEVKARYTRVVWCAVGPEEQKKCQQWSQQSGQNVTCATASTTDDCIVLVLKGEADALNLDGGYIYTAGKCGLVPVLAENRKSSKHSSLDCVLRPTEGYLAVAVVKKANEGLTWNSLKDKKSCHTAVDRTAGWNIPMGLIVNQTGSCAFDEFFSQSCAPGADPKSRLCALCAGDDQGLDKCVPNSKEKYYGYTGAFRCLAEDVGDVAFVKNDTVWENTNGESTADWAKNLNREDFRLLCLDGTRKPVTEAQSCHLAVAPNHAVVSRSDRAAHVKQVLLHQQALFGKNGKNCPDKFCLFKSETKNLLFNDNTECLAKLGGRPTYEEYLGTEYVTAIANLKKCSTSPLLEACAFLTR
notes: 78-80 kDa glycoprotein; commercially obtained bovine lactoferrin applied as aqueous solution
- number of anagen phase hair follicles relative to control vehicle-treated area [1, 4]: approximately two-fold
- skin thickness versus control vehicle-treated skin [1, 4]: no significant difference
- time until hair growth was observed after the treatment ([1]; 60 μl of 100 mg/ml aqueous solution topically twice daily): 3 to 5 days
- time until hair growth was observed after the treatment ([1]; 60 μl of 200 mg/ml aqueous solution topically twice daily): 2 to 4 days
- speed of hair growth versus control vehicle-treated skin ([1]; lactoferrin-treated skin (100 and 200 mg/ml), twice daily): more rapid hair growth
- subcutaneous fat and skin thickness versus control area ([2]; 200 mg/ml, 14 days, H&E): increased subcutaneous fat and increased thickness of skin
- hair follicle phase in histological examination ([2]; 200 mg/ml, 14 days, H&E, control area uniform telogen-phase follicles): a large number of anagen-phase (actively growing stage) hair follicles
- hair growth observed in the treated skin area ([2]; 200 mg/ml, after 11 days of treatment, not seen with control vehicle): prominent hair growth
- time until hair began to grow on the treated areas after the treatment ([2]; 60 μl of 100 mg/ml topically twice a day): 6 to 8 days
- time until hair began to grow on the treated areas after the treatment ([2]; 60 μl of 200 mg/ml topically twice a day): 4 to 6 days
- inflammation and morphological abnormalities of the treated skin ([2]; topical lactoferrin twice a day): no inflammation and morphological abnormalities
- hair growth observed in the treated skin area [3]: prominent hair growth
